Results published in patent publication US20180305450A1 (AstraZeneca / MedImmune, published 2018).
Where a chain is given by its changes, count along the chain named. Names may count otherwise.

B1: Par0067 IgG (antibody, V domains shown)
VH: EVQLLESGGGLVQPGGSLRLSCAASGFTFSSYAMNWVRQAPGKGLEWVSTISYSGSLISYADSVKGRFTISRDNSKNTLYLQMNSLRAEDTAVYYCARINNDPMDVWGQGTLVTVSS
VL: SIELTQPPSVSVSPGQTASITCSGDNLGKKYVQWYQQKPGQSPVLVIYDDSNRPSGIPERFSGSNSGNTATLTISGTQAMDEADYYCQTWDGNPTTGETNVFGGGTKLTVL
notes: IgG1-TM (L234F, L235E, P331S), human lambda light chain; also called ZZ15D2-D02; parent Par0067 IgG
B2: PaB670149 IgG (antibody, V domains shown)
VH: B1 VH with S54H, S56H, L57H, V64H, K65H, G66H, N101H
VL: B1 VL with Q88H, D91H, G92H, N93H, T96H, T99H
notes: IgG1-TM (L234F, L235E, P331S), human lambda light chain
B3: PaB670143 IgG (antibody, V domains shown)
VH: B1 VH with S54H, S56H, L57H, V64H, K65H, G66H
VL: B1 VL with T96H
notes: as for B2
B4: PaB670146 IgG (antibody, V domains shown)
VH: B1 VH with N101H
VL: B1 VL with Q88H, D91H, G92H, N93H, T96H, T99H
notes: as for B2
B5: PaB670163 IgG (antibody, V domains shown)
VH: B1 VH with S54H, S56H, L57H, V64H, K65H, G66H, N101H
VL: B1 VL with Q88H, N93H, P94H, V101H
notes: as for B2
B6: PaB670045 IgG (antibody, V domains shown)
VH: B1 VH with N100H, N101H
VL: B1 VL
notes: IgG1-TM (L234F, L235E, P331S), human lambda light chain; also called ZZ1KX3-F01
B7: PaB670142 IgG (antibody, V domains shown)
VH: B1 VH with N100H, N101H
VL: B1 VL with T96H
notes: as for B2
B8: PaB670162 IgG (antibody, V domains shown)
VH: B1 VH with S54H, S56H, L57H, V64H, K65H, G66H
VL: B1 VL with Q88H, N93H, P94H, V101H
notes: as for B2
B9: PaB670144 IgG (antibody, V domains shown)
VH: B1 VH with S54H, S56H, L57H, V64H, K65H, G66H, N101H
VL: B1 VL with T96H
notes: as for B2
B10: PaB670160 IgG (antibody, V domains shown)
VH: B1 VH with N101H
VL: B1 VL with Q88H, N93H, P94H, V101H
notes: as for B2
B11: PaB670152 IgG (antibody, V domains shown)
VH: B1 VH with N100H, N101H
VL: B1 VL with Q88H, G92H, N93H, P94H, T99H
notes: as for B2
B12: PaB670151 IgG (antibody, V domains shown)
VH: B1 VH with N101H
VL: B1 VL with Q88H, G92H, N93H, P94H, T99H
notes: as for B2
B13: PaB670048 IgG (antibody, V domains shown)
VH: B1 VH with N100H, N101H, V106H
VL: B1 VL
notes: IgG1-TM (L234F, L235E, P331S), human lambda light chain; also called ZZ1KX4-E11
B14: PaB670148 IgG (antibody, V domains shown)
VH: B1 VH with S54H, S56H, L57H, V64H, K65H, G66H
VL: B1 VL with Q88H, D91H, G92H, N93H, T96H, T99H
notes: as for B2
B15: PaB670156 IgG (antibody, V domains shown)
VH: B1 VH with N101H
VL: B1 VL with N93H, P94H, T95H, V101H
notes: as for B2
B16: PaB670159 IgG (antibody, V domains shown)
VH: B1 VH with S54H, S56H, L57H, V64H, K65H, G66H, N101H
VL: B1 VL with N93H, P94H, T95H, V101H
notes: as for B2
B17: PaB670158 IgG (antibody, V domains shown)
VH: B1 VH with S54H, S56H, L57H, V64H, K65H, G66H
VL: B1 VL with N93H, P94H, T95H, V101H
notes: as for B2
B18: PaB670128 IgG (antibody, V domains shown)
VH: B1 VH with S54H, S56H, L57H, V64H, K65H, G66H, N100H, N101H
VL: B1 VL
notes: IgG1-TM (L234F, L235E, P331S), human lambda light chain; also called ZZ1RUE-A01
B19: PaB670153 IgG (antibody, V domains shown)
VH: B1 VH with S54H, S56H, L57H, V64H, K65H, G66H
VL: B1 VL with Q88H, G92H, N93H, P94H, T99H
notes: as for B2
B20: PaB670161 IgG (antibody, V domains shown)
VH: B1 VH with N100H, N101H
VL: B1 VL with Q88H, N93H, P94H, V101H
notes: as for B2
B21: PaB670084 IgG (antibody, V domains shown)
VH: B1 VH with Y53H, S56H, S59H, Y60H, V64H
VL: B1 VL
notes: IgG1-TM (L234F, L235E, P331S), human lambda light chain; also called ZZ1PXA-A05
B22: PaB670141 IgG (antibody, V domains shown)
VH: B1 VH with N101H
VL: B1 VL with T96H
notes: as for B2
B23: PaB670157 IgG (antibody, V domains shown)
VH: B1 VH with N100H, N101H
VL: B1 VL with N93H, P94H, T95H, V101H
notes: as for B2

Target: T1, recombinant biotinylated human PAR2 extracellular domain (residues 1-75), N-terminal AviTag, C-terminal Flag … (human, UniProt P55085 26-75, biotin on the AviTag (enzymatic biotinylation))
T1 construct: also called Bio-human-PAR2 ECD; human PAR2 ECD; not shown: N-terminal AviTag (Avidity LLC); C-terminal Flag and poly Histidine tags
Test: HTRF competition with Dylight650-Par0067 IgG, IgG
Protocol: (§1) Parent Par0067 IgG (used as a reference/control in all assays) was pre-diluted to give a 2000 nM stock in each of the two different pH assay buffers (in order to give a top final assay IgG concentration of 500 nM). All test, or other reference/control IgG were tested from a top final assay concentration of ¼ of the neat undiluted sample (i.e. no pre-dilution step was performed). Duplicate 11 point 1:3 serial dilutions then were prepared on 384 well polypropylene Greiner plates in each of the two assay buffers (pH 7.4 & 6.0). 5 μl per well was transferred from the relevant pH IgG dilution plate to the corresponding assay plate (pH 7.4 and pH 6.0). 5 ul of the appropriate pH assay buffer was added to the total and non-specific wells.
(§2) For multipoint dose response curves % Specific Binding values were plotted versus test purified antibody concentration (scFv or IgG). IC₅₀ values were determined via a sigmoidal dose response inhibition variable slope curve fit (4 parameter logistic equation) using Graphpad Prism Software.

T1 sequence (P55085 26-75): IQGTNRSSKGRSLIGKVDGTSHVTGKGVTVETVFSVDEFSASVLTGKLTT

Fold IC50 (pH 6.0 v pH 7.4)	Fold IC50 pH 7.4 (Variant v Par0067)	Binder
0.95 fold	1 fold	B1
–	605 fold	B2
11.8 fold	4 fold	B3
8.5 fold	110 fold	B4
–	174 fold	B5
8.9 fold	3.5 fold	B6
14 fold	5.7 fold	B7
79.5 fold	13.7 fold	B8
19.5 fold	34.7 fold	B9
37.5 fold	20.2 fold	B10
15.1 fold	526 fold	B11
11.5 fold	83.2 fold	B12
8.5 fold	6.8 fold	B13
17.4 fold	58.1 fold	B14
27.2 fold	8.4 fold	B15
–	193 fold	B16
69.8 fold	8.2 fold	B17
–	39.3 fold	B18
17.6 fold	111 fold	B19
39.6 fold	57.4 fold	B20
6.3 fold	12.3 fold	B21
5.9 fold	2.8 fold	B22
59 fold	18.9 fold	B23

Target: T1, recombinant biotinylated human PAR2 …
Test: HTRF competition with Dylight650-Par0067 IgG, pH 6.0, IgG
Protocol: as §1, §2

IC50	Binder
0.00079 µM	B1
0.04 µM	B3
0.784 µM	B4
0.0258 µM	B6
0.0671 µM	B7
0.906 µM	B8
0.565 µM	B9
0.634 µM	B10
6.6 µM	B11
0.796 µM	B12
0.0482 µM	B13
0.845 µM	B14
0.19 µM	B15
0.477 µM	B17
1.64 µM	B19
1.9 µM	B20
0.0646 µM	B21
0.0139 µM	B22
0.932 µM	B23

Target: T1, recombinant biotinylated human PAR2 …
Test: HTRF competition with Dylight650-Par0067 IgG, pH 7.4, IgG
Protocol: as §1, §2

IC50	Binder
0.000835 µM	B1
0.505 µM	B2
0.0034 µM	B3
0.0919 µM	B4
0.145 µM	B5
0.0029 µM	B6
0.0048 µM	B7
0.0114 µM	B8
0.029 µM	B9
0.0169 µM	B10
0.439 µM	B11
0.0695 µM	B12
0.0057 µM	B13
0.0485 µM	B14
0.007 µM	B15
0.161 µM	B16
0.0068 µM	B17
0.0328 µM	B18
0.093 µM	B19
0.0479 µM	B20
0.0103 µM	B21
0.0024 µM	B22
0.0158 µM	B23
